# Assay results reported in article PMC13076993.
# How the values were obtained:
# [1] = biological target: human PD-1 (programmed cell death 1) on Jurkat cells (human) (UniProt Q15116)
# [2] = biological target: human PD-1 (programmed cell death 1) on Jurkat cells (human) (UniProt Q15116); remark: listed apart in the source
# Chain of UniProt Q15116 (Q15116 25-288): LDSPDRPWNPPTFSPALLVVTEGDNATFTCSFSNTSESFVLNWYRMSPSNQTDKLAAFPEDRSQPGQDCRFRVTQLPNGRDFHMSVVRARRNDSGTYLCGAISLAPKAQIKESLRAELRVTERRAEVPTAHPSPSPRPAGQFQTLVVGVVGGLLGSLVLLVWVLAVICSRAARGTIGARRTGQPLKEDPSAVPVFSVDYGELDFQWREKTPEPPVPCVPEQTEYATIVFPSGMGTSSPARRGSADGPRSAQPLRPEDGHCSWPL
substance,measurement,setting,value
human PD-L1 extracellular domain (from E. coli) (from UniProt Q9NZQ7 19-238) (ligand),IL-2 secretion of Jurkat cells stimulated with CO-L1 beads (CD3 antibody and PD-L1) in the presence of soluble S-PDL1 at various concentrations,[1],100 µg/mL
same,force at which the bond lifetime peaks,[2],7 pN
